Assays:
[1] = Purification of LATM2 with 2-iminobiotin-agarose; type: binding; settings: for Recovery rate (%): Iminobiotin-agarose, binding at pH 12, elution with 50 mM NH4OAC (pH 4)
Method: LATM2 was purified through a column charged with 2-iminobiotin-agarose (manufactured by Sigma-Aldrich Corp.) in accordance with the method by Hofmann, et al., (1980). IPTG was added to 25 mL of a culture solution of E. coli transformed with each LATM2 in a final concentration of 1 mM to induce expression. The E. coli cells were collected by centrifugation, suspended in 1.5 mL of 50 mM CAPS (pH 12) containing 50 mM NaCl, and then sonicated. To the supernatant of the disrupted cells, 500 μL of 2-iminobiotin-agarose was added, which was then packed in a column. The column was sufficiently washed with 50 mM CAPS (pH 12) containing 500 mM NaCl, and elution was then performed with 50 mM NH4OAC (pH 4).
(§1) The recovery rate in Table 2 was calculated by dividing the amount of LATM2 protein after purification by the amount of LATM2 protein before purification and was expressed by percent by multiplying the quotient by 100. The degree of purification was the ratio of the amount of LATM2 protein to the total amount of proteins in the purified fraction and was expressed by percent by multiplying the ratio by 100. The recovery rates and the degrees of purification in biotin-agarose were the results after binding at pH 7 and elution with an excess amount of biotin.

[2] = Purification of LATM2 with biotin-agarose; type: binding
Method: Purification with biotin-agarose (manufactured by Sigma-Aldrich Corp.) was performed by the following procedure. After induced expression of 25 mL of a culture solution of E. coli for each LATM2, the E. coli cells were suspended in 1.5 mL of a 100 mM potassium phosphate buffer (pH 7.0), and then sonicated. To the supernatant of the disrupted cells. 400 μL of biotin-agarose was added, which was followed by upside-down mixing for 1 hr. […]
In TM2 S36A-T78A-D116A, the E. coli cells were suspended in 1.5 mL of 50 mM CAPS (pH 12) containing 50 mM NaCl, and then sonicated. To the disrupted cells, 400 μL of biotin-agarose was added, which was followed by upside-down mixing for 1 hr. The column was sufficiently washed with 50 mM CAPS (pH 12) containing 500 mM NaCl, and elution was then performed with 1 mL of PBS (pH 7.4) containing 10 mM biotin.
In TM2 S36A-D116A, the E. coli cells were suspended in 1.5 mL of a 100 mM potassium phosphate buffer (pH 4.0), and then sonicated. To the pupernatant of the disrupted cells, 400 μL of biotin-agarose was added. Washing was performed with a 100 mM potassium phosphate buffer (pH 4) containing 500 mM NaCl, and elution was performed with 1 mL of PBS (pH 7) containing 10 mM biotin. Biotin binding to LATM2 that has been eluted with an excess amount of biotin was removed by dialysis with a 20 mM potassium phosphate buffer overnight.
as §1

[3] = Subunit association by FPLC on Sephacryl S-100HR; type: physicochemical; settings: for Structure (identified by FPLC): Sephacryl S-100HR, 50 mM potassium phosphate, 500 mM NaCl; for Sephacryl (mL), elution peak position: tetramer 44 to 47 mL, dimer 51 to 54 mL, monomer 63 to 66 mL
Method: In order to analyze the subunit association conditions of LATM2, the molecular weight of each LATM2s was measured by FPLC. Sephacryl S-100HR (manufactured by GE Healthcare) was used as a column, a Gel Filtration Calibration Kit LMW (manufactured by GE Healthcare) was used as molecular weight markers, and 50 mM potassium phosphate containing 500 mM NaCl was used as a buffer.
The positions of the peaks of eluted tetramer were defined to be 44 to 47 mL after injection of WT-TM2 as a control. The peak of an eluted monomer appeared at around 63 to 66 mL and the peak of an eluted dimer appeared at around 51 to 54 mL, from result of loading the molecular weight markers.

Proteinase K = experiment: Protease resistance of LATM2 (SDS-PAGE); settings: 5 μM Proteinase K, 30° C., 15 min, presence or absence of biotin
Method: Throughout the specification, “having protease resistance” refers to that a protein is not enzymatically decomposed or not substantially decomposed by protease treatment. The protease treatment is performed by, for example, proteinase K treatment at 30° C. for 15 min. The term “not enzymatically decomposed” refers to that bands of a tetramer, dimer, and/or monomer of the protein can be clearly detected by SDS-PAGE after enzyme treatment, as in wild-type TM2. That is, a protein not having protease resistance is decomposed into small molecules by protease treatment, and bands of the tetramer, dimer, and monomer are not detected by SDS-PAGE after the protease treatment. […] Accordingly, bands of the tetramer and/or the dimer or monomer generated by dissociation of the tetramer are detected by SDS-PAGE. […] of each of the LATM2s (TM2 S36A, TM2 […], TM2 […], TM2 […], TM2 […], TM2 S36A-[…], TM2 […], and […]) purified by biotin-agarose was subjected to a reaction in 50 mM Tris-HCl (pH 8.0) containing 5 μM Proteinase K and 5 mM CaCl2 at 30° C. for 15 min. […] Then, an SDS buffer was added to each reaction solution, followed by heat treatment at 95° C. for 10 min to terminate the reaction. The resulting sample was subjected to SDS-PAGE, followed by CBB staining.

[4] = Biotin-agarose, binding at pH 7, recovery with 10 mM biotin

Row | Molecule | binding to 2-iminobiotin-agarose [1] | Note (Iminobiotin-agarose) ([1]; FT = column flow-through fraction) | Recovery rate (%) [1] [%] | Recover rate (%) [2, 4] [%] | Structure (identified by FPLC) [3] | Sephacryl (mL), elution peak position [3] [mL] | decomposition by Proteinase K (Proteinase K) | binding to biotin-agarose [2] | elution from biotin-agarose with an excess amount of biotin [2] | Structure (identified by FPLC) ([3]; listed as S36A) | Structure (identified by FPLC) ([3]; listed as D116A) | recover rate by elution with acetic acid ([2]; Biotin-agarose, elution with acetic acid) | recovery rate by binding at pH 12, extraction with acetic acid ([2]; Biotin-agarose) | Note (Biotin-agarose) ([2]; binding at pH 7, recovery with 10 mM biotin, FT = flow-through)
1 | TM2 T78A-D116A: TM2 with 78th threonine and 116th aspartic acid replaced with alanine; SEQ ID NO: 22 (protein, Synthetic TM2 T78A-D116A) MSDVQSSLTGTWYNELNSKMELTANKDGTLTGKYLSKVGDVYVPYPLSGRYNLQPPAGQGVALGWAVSWENSKIHSAATWSGQFFSESSPVILTQWLLSSSTARGDVWESTLVGNASFTKTAPTEQQIAHAQLHCRAPRLK | did not bind | To FT | 0 | 95 | Tetramer | 46.37 | hardly decomposed |  |  |  |  |  |  | 
2 | TM2 S36A: TM2 in which the 36th serine was replaced with alanine; SEQ ID NO: 6 (protein, Synthetic TM2 S36A) MSDVQSSLTGTWYNELNSKMELTANKDGTLTGKYLAKVGDVYVPYPLSGRYNLQPPAGQGVALGWAVSWENSKIHSATTWSGQFFSESSPVILTQWLLSSSTARGDVWESTLVGNDSFTKTAPTEQQIAHAQLHCRAPRLK |  |  | 95 | 95 | tetramer | 46.17 | hardly decomposed | efficiently adsorbs to biotin-agarose | eluted by addition of an excess amount of biotin | Tetramer |  |  |  | 
3 | TM2 D116A: TM2 in which the 116th aspartic acid was replaced with alanine; SEQ ID NO: 12 (protein, Synthetic TM2 D116A) MSDVQSSLTGTWYNELNSKMELTANKDGTLTGKYLSKVGDVYVPYPLSGRYNLQPPAGQGVALGWAVSWENSKIHSATTWSGQFFSESSPVILTQWLLSSSTARGDVWESTLVGNASFTKTAPTEQQIAHAQLHCRAPRLK |  |  | 95 | 95 | tetramer | 46.22 | hardly decomposed |  |  |  | Tetramer |  |  | 
4 | TM2P46T-T78A-D116A: TM2 with P46T, T78A and D116A replacements; SEQ ID NO: 18 (protein, Synthetic TM2 P46T-T78A-D116A) MSDVQSSLTGTWYNELNSKMELTANKDGTLTGKYLSKVGDVYVPYTLSGRYNLQPPAGQGVALGWAVSWENSKIHSAATWSGQFFSESSPVILTQWLLSSSTARGDVWESTLVGNASFTKTAPTEQQIAHAQLHCRAPRLK |  |  | 95 | 95 | Tetramer | 48.24 | hardly decomposed |  |  |  |  |  |  | 
5 | TM2 W80K: TM2 in which the 80th tryptophan was replaced with lysine; amino acid sequence SEQ ID NO: 4 (protein, Synthetic TM2 W80K) MSDVQSSLTGTWYNELNSKMELTANKDGTLTGKYLSKVGDVYVPYPLSGRYNLQPPAGQGVALGWAVSWENSKIHSATTKSGQFFSESSPVILTQWLLSSSTARGDVWESTLVGNDSFTKTAPTEQQIAHAQLHCRAPRLK |  |  | 95 | 50 | Tetramer | 44.4 | hardly decomposed |  |  |  |  | recover rate: 95% |  | 
6 | TM2P46T-T78A: TM2 with 46th proline replaced with threonine and 78th threonine with alanine; SEQ ID NO: 14 (protein, Synthetic TM2 P46T-T78A) MSDVQSSLTGTWYNELNSKMELTANKDGTLTGKYLSKVGDVYVPYTLSGRYNLQPPAGQGVALGWAVSWENSKIHSAATWSGQFFSESSPVILTQWLLSSSTARGDVWESTLVGNDSFTKTAPTEQQIAHAQLHCRAPRLK |  |  | 95 | 5 | Tetramer | 46.05 | hardly decomposed |  |  |  |  |  | recovery rate: 70% | note eluted
7 | TM2P46T-D116A: TM2 with 46th proline replaced with threonine and 116th aspartic acid with alanine; SEQ ID NO: 16 (protein, Synthetic TM2 P46T-D116A) MSDVQSSLTGTWYNELNSKMELTANKDGTLTGKYLSKVGDVYVPYTLSGRYNLQPPAGQGVALGWAVSWENSKIHSATTWSGQFFSESSPVILTQWLLSSSTARGDVWESTLVGNASFTKTAPTEQQIAHAQLHCRAPRLK |  |  | 95 | 95 | Tetramer | 46.23 | hardly decomposed |  |  |  |  |  |  | 
